From paper doi:10.1101/2024.03.12.584565 (bioRxiv, 2024)

Biological target: T1, Flag-tagged Pds5b-Ser1161,1166Ala (2A), phosphorylated by Nek2a in vitro (human, UniProt Q9NTI5 1-1447, Ser1161,1166Ala | Ser1161,1166Ala)
T1 sequence: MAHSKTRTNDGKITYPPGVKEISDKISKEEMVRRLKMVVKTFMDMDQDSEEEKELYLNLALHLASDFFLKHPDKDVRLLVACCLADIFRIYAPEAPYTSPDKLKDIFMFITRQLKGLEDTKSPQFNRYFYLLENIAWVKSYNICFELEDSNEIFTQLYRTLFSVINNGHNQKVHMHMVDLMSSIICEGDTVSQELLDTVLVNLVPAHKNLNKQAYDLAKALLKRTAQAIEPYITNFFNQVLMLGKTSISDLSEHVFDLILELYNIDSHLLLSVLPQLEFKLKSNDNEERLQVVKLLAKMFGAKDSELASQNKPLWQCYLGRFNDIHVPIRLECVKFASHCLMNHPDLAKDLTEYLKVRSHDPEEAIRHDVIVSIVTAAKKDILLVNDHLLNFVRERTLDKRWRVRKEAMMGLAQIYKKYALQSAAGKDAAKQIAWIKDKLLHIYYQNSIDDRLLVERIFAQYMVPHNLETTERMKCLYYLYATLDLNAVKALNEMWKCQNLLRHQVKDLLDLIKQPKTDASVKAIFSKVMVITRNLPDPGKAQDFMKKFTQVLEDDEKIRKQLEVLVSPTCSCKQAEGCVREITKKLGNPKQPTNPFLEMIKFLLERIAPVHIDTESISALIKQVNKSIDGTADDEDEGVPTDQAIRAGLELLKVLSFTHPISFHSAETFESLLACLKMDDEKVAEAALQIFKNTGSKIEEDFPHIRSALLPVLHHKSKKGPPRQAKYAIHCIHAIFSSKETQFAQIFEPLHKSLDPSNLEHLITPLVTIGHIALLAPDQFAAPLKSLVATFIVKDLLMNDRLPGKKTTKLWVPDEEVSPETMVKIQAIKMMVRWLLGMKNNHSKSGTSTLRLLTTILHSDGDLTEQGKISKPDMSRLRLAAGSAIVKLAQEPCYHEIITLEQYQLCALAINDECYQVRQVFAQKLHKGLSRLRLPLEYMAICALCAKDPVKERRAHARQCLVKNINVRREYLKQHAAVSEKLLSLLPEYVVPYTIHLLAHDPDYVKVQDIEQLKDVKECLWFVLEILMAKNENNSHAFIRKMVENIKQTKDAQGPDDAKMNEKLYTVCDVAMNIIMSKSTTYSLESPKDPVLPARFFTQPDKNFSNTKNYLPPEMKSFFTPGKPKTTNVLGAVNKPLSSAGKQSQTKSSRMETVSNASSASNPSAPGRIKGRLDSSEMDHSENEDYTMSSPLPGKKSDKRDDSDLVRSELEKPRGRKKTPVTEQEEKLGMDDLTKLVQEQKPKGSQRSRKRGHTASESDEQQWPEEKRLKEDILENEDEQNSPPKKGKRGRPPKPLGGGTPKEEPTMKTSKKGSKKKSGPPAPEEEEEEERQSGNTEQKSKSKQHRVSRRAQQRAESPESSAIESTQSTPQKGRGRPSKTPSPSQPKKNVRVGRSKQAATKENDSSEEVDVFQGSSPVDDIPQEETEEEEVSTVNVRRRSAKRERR
Test: pull-down

binding result: binds
B1: recombinant human Wapl (natural protein)
chain: MTSRFGKTYSRKGGNGSSKFDEVFSNKRTTLSTKWGETTFMAKLGQKRPNFKPDIQEIPKKPKVEEESTGDPFGFDSDDESLPVSSKNLAQVKCSSYSESSEAAQLEEVTSVLEANSKISHVVVEDTVVSDKCFPLEDTLLGKEKSTNRIVEDDASISSCNKLITSDKVENFHEEHEKNSHHIHKNADDSTKKPNAETTVASEIKETNDTWNSQFGKRPESPSEISPIKGSVRTGLFEWDNDFEDIRSEDCILSLDSDPLLEMKDDDFKNRLENLNEAIEEDIVQSVLRPTNCRTYCRANKTKSSQGASNFDKLMDGTSQALAKANSESSKDGLNQAKKGGVSCGTSFRGTVGRTRDYTVLHPSCLSVCNVTIQDTMERSMDEFTASTPADLGEAGRLRKKADIATSKTTTRFRPSNTKSKKDVKLEFFGFEDHETGGDEGGSGSSNYKIKYFGFDDLSESEDDEDDDCQVERKTSKKRTKTAPSPSLQPPPESNDNSQDSQSGTNNAENLDFTEDLPGVPESVKKPINKQGDKSKENTRKIFSGPKRSPTKAVYNARHWNHPDSEELPGPPVVKPQSVTVRLSSKEPNQKDDGVFKAPAPPSKVIKTVTIPTQPYQDIVTALKCRREDKELYTVVQHVKHFNDVVEFGENQEFTDDIEYLLSGLKSTQPLNTRCLSVISLATKCAMPSFRMHLRAHGMVAMVFKTLDDSQHHQNLSLCTAALMYILSRDRLNMDLDRASLDLMIRLLELEQDASSAKLLNEKDMNKIKEKIRRLCETVHNKHLDLENITTGHLAMETLLSLTSKRAGDWFKEELRLLGGLDHIVDKVKECVDHLSRDEDEEKLVASLWGAERCLRVLESVTVHNPENQSYLIAYKDSQLIVSSAKALQHCEELIQQYNRAEDSICLADSKPLPHQNVTNHVGKAVEDCMRAIIGVLLNLTNDNEWGSTKTGEQDGLIGTALNCVLQVPKYLPQEQRFDIRVLGLGLLINLVEYSARNRHCLVNMETSCSFDSSICSGEGDDSLRIGGQVHAVQALVQLFLERERAAQLAESKTDELIKDAPTTQHDKSGEWQETSGEIQWVSTEKTDGTEEKHKKEEEDEELDLNKALQHAGKHMEDCIVASYTALLLGCLCQESPINVTTVREYLPEGDFSIMTEMLKKFLSFMNLTCAVGTTGQKSISRVIEYLEHC
